Results taken from publication PMC9162458 (2022).
Read-outs that look alike come from different tables or passages of the source. Ends that are not written are not given here.

B1: LiRAD51^ATPase (Leishmania infantum RAD51 ATPase domain, residues 134–386) (domain or fragment)
chain: EIIMVTTGSREVDKLLGGGIETGSITELFGEFRTGKTQLCHTLCVTCQLPISQGGAEGMALYIDTEGTFRPERLVAVAARYGLDPEDVLANVACARAFNTDHQQQLLLQASAMMAENRFALIVVDSATALYRTDYSGRNELAARQMHLGKFLRSLHNLAEEYGVAVVVTNQVVANVDGSAQMFQADSKKPIGGHIMAHASTTRLSLRKGRGEQRIIKVYDSPCLAEAEAIFGIYDDGVGDARD

Key:
[1] = biological target: B1; assay: FP
[2] = biological target: B1; assay: FP
[3] = biological target: B1; assay: ITC
[4] = biological target: B1; assay: FP
[5] = biological target: LiBRC1.6; assay: FP
[6] = biological target: LiBRC1.12; assay: FP
[7] = biological target: LiBRC1.5; assay: FP
[8] = biological target: LiBRC1.4; assay: FP

GB1-LVPTLFSTASGKPVTVRRESLQKVAERLGDLAA-His8 (domain or fragment) [GB1-LiBRC1-His8 (BRC repeat 1 of Leishmania infantum BRCA2 fused to GB1)]
IC50 [1]: 1570 nM

LVPTLFSTASGKPVTVRRESLQKVAERLGDLAAPDME (domain or fragment, not fully specified (N-terminus); also: GB1 fusion) [LiBRC1.2 (LiBRC1 with extended termini, GB1 fusion)]
IC50 [2]: 1200 nM

GB1-RVPTLFETGRGKAVTVQKRSLDKAEASMDSLEA-His8 (domain or fragment) [GB1-LiBRC2-His8 (BRC repeat 2 of Leishmania infantum BRCA2 fused to GB1)]
IC50 [1]: 55000 nM

GSLVPTLFSTASGKPVTVRRESLQKVAERLGDLAA [LiBRC1 free peptide]
Ka [3]: 1.54e+06 M⁻¹

LVPTLFSTASGKPVTVRRESLQK (domain or fragment, not fully specified (N-terminus); also: GB1 fusion) [LiBRC1.10 (C-terminal truncation of LiBRC1, Val131 also removed, GB1 fusion)]
IC50 [2]: 41000 nM

LVPTLFSTASGKPVTVRRESLQ (domain or fragment, not fully specified (N-terminus); also: GB1 fusion) [LiBRC1.11 (C-terminal truncation of LiBRC1 up until Gln129, GB1 fusion)]
IC50 [2]: 36500 nM

LVPTLFSTASGKPVTVRRESLQKVA (domain or fragment, not fully specified (N-terminus); also: GB1 fusion) [LiBRC1.8 (C-terminal truncation of LiBRC1, Glu133 also removed, GB1 fusion)]
IC50 [2]: 8800 nM

LVPTLFSTASGKPVTVRRESLQKV (domain or fragment, not fully specified (N-terminus, C-terminus); also: GB1 fusion) [LiBRC1.9 (C-terminal truncation of LiBRC1, GB1 fusion)]
Kd [4]: 2630 nM | IC50 [2]: 11000 nM

B1
Kd [5]: 1090 nM | Kd [6]: > 124000 nM | Kd [7]: 380 nM | Kd [8]: 410 nM

LVPTLFSTASGKPVTVRRESLQKVAE (domain or fragment, not fully specified (N-terminus); also: GB1 fusion) [LiBRC1.7 (C-terminal truncation of LiBRC1, residues up to Arg134 removed, GB1 fusion)]
IC50 [2]: 1990 nM

AAAPPLVPTLFSTASGKPVTVRRESLQKVAERLGDLAA (domain or fragment, not fully specified (N-terminus); also: GB1 fusion) [LiBRC1.3 (LiBRC1 with extended termini, GB1 fusion)]
IC50 [2]: 1670 nM
